Measurements reported in PMC3060061.

Molecular target: PP2A core enzyme (A–C core dimer) (human) (UniProt P30153)
Assay: ITC

Chain of UniProt P30153 (P30153 whole entry, chain 1 of 2): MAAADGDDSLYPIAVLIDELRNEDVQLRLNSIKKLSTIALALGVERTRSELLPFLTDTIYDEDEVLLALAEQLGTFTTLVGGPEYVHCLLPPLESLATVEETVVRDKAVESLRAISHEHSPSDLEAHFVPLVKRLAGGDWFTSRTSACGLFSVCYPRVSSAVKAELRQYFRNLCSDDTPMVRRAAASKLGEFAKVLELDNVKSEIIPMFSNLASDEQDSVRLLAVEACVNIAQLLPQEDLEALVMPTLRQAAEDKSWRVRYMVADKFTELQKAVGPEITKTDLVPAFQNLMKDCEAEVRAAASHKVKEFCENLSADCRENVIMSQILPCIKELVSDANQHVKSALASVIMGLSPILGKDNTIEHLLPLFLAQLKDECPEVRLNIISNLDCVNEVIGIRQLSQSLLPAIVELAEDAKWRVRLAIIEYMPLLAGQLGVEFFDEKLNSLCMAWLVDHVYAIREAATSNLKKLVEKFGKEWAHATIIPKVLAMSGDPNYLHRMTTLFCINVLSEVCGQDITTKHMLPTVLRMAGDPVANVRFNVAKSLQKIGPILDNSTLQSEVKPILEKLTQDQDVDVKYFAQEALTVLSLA
Chain of UniProt P30153 (P67775 whole entry, chain 2 of 2, further chain): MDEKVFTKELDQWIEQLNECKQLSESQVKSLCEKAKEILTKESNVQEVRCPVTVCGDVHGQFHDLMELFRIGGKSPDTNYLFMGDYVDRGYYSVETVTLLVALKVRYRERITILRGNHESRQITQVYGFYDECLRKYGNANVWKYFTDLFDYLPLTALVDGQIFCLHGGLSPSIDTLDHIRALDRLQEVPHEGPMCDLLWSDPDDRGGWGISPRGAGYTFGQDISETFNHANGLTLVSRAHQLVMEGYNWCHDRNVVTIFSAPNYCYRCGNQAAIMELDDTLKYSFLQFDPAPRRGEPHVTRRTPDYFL

- fold increase of the binding affinity against wild type LCMT-1: 4 fold
Substance: LCMT-1 T29V (enzyme)
